Substrate in the data set: NCC(=O)N1CCC[C@H]1C(=O)Nc1ccc([N+](=O)[O-])cc1
Put plainly: purified protein, by the assay type. The conditions noted are these: other: rsCD26; Lineweaver-Burke transformation; substrate at different concentrations; 20.0 °C.

Method: The DPPIV enzyme activities of the rsCD26 and serum DPPIV were analyzed by Michaelis-Menten kinetics by assessing kinetics of hydrolysis of substrate at different concentrations.
DPPIV activity: The primary substrate used for determining DPPIV activity in all assays was Gly-Pro-p-nitroanilide (Gly-Pro-pNA; Sigma), which is hydrolyzed by DPPIV to release pNA absorbing strongly at 405 nm. Kinetic assays were performed using varying amounts of substrate in order to obtain estimates of the Km and Vmax using standard Michaelis-Menten kinetics. For screening assays of DPPIV activity, 150 ml of substrate was used at 1 mg/ml (2 mM final concentration) in phosphate buffer (pH7.6, 100 mM) in 96 well flat-bottomed microtiter plates together with 10 ml of appropriately diluted sample. For samples obtained after elution from the s-Sepharose column, the pH was raised to pH7.6 by addition of 25 μl of 1M Tris-HCl, pH7.6 to the reaction mixture. One unit (U) of enzyme activity was defined as the amount of enzyme that cleaved 1 mmol of Gly-Pro-pNA/min at pH7.6 and 20° C. […] The pH optimum was determined substituting phosphate buffer (100 mM, pH4.5-pH9) in place of standard incubation buffer.

B1: recombinant soluble CD26 (rsCD26), full extracellular domain of human T cell membrane CD26/DPPIV, 105 kDa form, from transfected CHO cells (Homo sapiens) (protein)
chain: NKGTDDATADSRKTYTLTDYLKNTYRLKLYSLRWISDHEYLYKQENNILVFNAEYGNSSVFLENSTFDEFGHSINDYSISPDGQFILLEYNYVKQWRHSYTASYDIYDLNKRQLITEERIPNNTQWVTWSPVGHKLAYVWNNDIYVKIEPNLPSYRITWTGKEDIIYNGITDWVYEEEVFSAYSALWWSPNGTFLAYAQFNDTEVPLIEYSFYSDESLQYPKTVRVPYPKAGAVNPTVKFFVVNTDSLSSVTNATSIQITAPASMLIGDHYLCDVTWATQERISLQWLRRIQNYSVMDICDYDESSGRWNCLVARQHIEMSTTGWVGRFRPSEPHFTLDGNSFYKIISNEEGYRHICYFQIDKKDCTFITKGTWEVIGIEALTSDYLYYISNEYKGMPGGRNLYKIQLSDYTKVTCLSCELNPERCQYYSVSFSKEAKYYQLRCSGPGLPLYTLHSSVNDKGLRVLEDNSALDKMLQNVQMPSKKLDFIILNETKFWYQMILPPHFDKSKKYPLLLDVYAGPCSQKADTVFRLNWATYLASTENIIVASFDGRGSGYQGDKIMHAINRRLGTFEVEDQIEAARQFSKMGFVDNKRIAIWGWSYGGYVTSMVLGSGSGVFKCGIAVAPVSRWEYYDSVYTERYMGLPTPEDNLDHYRNSTVMSRAENFKQVEYLLIHGTADDNVHFQQSAQISKALVDVGVDFQAMWYTDEDHGIASSTAHQHIYTHMSHFIKQCFSLP
What is called Km is the substrate concentration at which the rate is half of its maximum. With B1, the Km came to 0.28 mM.

Values taken from patent US6265551A, “Form of dipeptidylpeptidase IV (CD26) found in human serum, antibodies thereto, and uses thereof” (Dana-Farber Cancer Institute, Inc., priority 1996, dated 2001).
